Reverse-splicing fitness data for 15 variants are collected here from the RNAGym collection of RNA variant scans (doi:10.1093/molbev/msab373).

First the molecules themselves.
B1: Azoarcus group I ribozyme (parent)
chain: GUGCCUUGCGCCGGGAAACCACGCAAGGGAUGGUGUCAAAUUCGGCGAAACCUAAGCGCCCGCCCGGGCGUAUGGCAACGCCGAGCCAAGCUUCGGCGCCUGCGCCGAUGAAGGUGUAGAGACUAGACGGCACCCACCUAAGGCAAACGCUAUGGUGAAGGCAUAGUCCAGGGAGUGGCGAAAGUCACACAAACCGG

The variants in this series derive from B1. The series can be described thus: reverse-splicing fitness (ratio to wild type); higher = more active; in vitro selection; Mg2+ level not given. The method in brief: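 An in vitro group I ribozyme library with randomized positions was T7-transcribed and gel-purified. In triplicate, 10 pmol RNA in EPPS pH 7.5 was reacted with 50 pmoles of a 30-nt RNA substrate for 1 h at 37 °C across several added MgCl2 levels (1–48 mM), then stopped with EDTA. Products were reverse transcribed from a substrate-complementary primer, PCR-amplified and sequenced (HiSeq 4000). Fitness is a variant's read proportion after selection over that before, normalised to wild type.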
For GUGCCUUGCGCCGGGAAACCACGCAAGGGAUGGUGUCAAAUUCGGCGAAACCUAAGCGCCCGCCCGGGCGUAUGGCAACGCUGAGCCAAGCUUCGGCGCCUGCGCCGAUGCAGGUGUAGCGACUAGACGGCACCCACCUAAGGCUAACGGUAUGGUGAAGGCAUAGUCGAGGGAGAGGCGAAAGUCACACAAACCGG [C82U A111C A120C A145U C150G C169G U176A], the reverse-splicing fitness amounted to 0.00759.
As to GUGCCUUGCGCCGGGAAACCACGCAAGGGAUGGUGUCAAAUUCGGCGAAACCUAAGCGCCCGCCCGGGCGUAUGGCAACGCCGAGCCAAGCUUCGGCGCCUGCGCCGAUGUAGGUGUAGCGACUAGACGGCACCCACCUAAGGCUAACGCUAUGGUGAAGGCAUAGUCCAGGGAGCGGCGAAAGUCACACAAACCGG [A111U A120C A145U U176C], the reverse-splicing fitness worked out at 0.3.
On to GUGCCUUGCGCCGGGAAACCACGCAAGGGAUGGUGUCAAAUUCGGCGAAACCUAAGCGCCCGCCCGGGCGUAUGGCAACGCAGAGCCAAGCUUCGGCGCCUGCGCCGAUGAAGGUGUAGGGACUAGACGGCACCCACCUAAGGCCAACGGUAUGGUGAAGGCAUAGUCGAGGGAGGGGCGAAAGUCACACAAACCGG [C82A A120G A145C C150G C169G U176G], for which the reverse-splicing fitness turned out to be 0.00341.
To GUGCCUUGCGCCGGGAAACCACGCAAGGGAUGGUGUCAAAUUCGGCGAAACCUAAGCGCCCGCCCGGGCGUAUGGCAACGCGGAGCCAAGCUUCGGCGCCUGCGCCGAUGGAGGUGUAGCGACUAGACGGCACCCACCUAAGGCGAACGCUAUGGUGAAGGCAUAGUCUAGGGAGCGGCGAAAGUCACACAAACCGG [C82G A111G A120C A145G C169U U176C] belongs 0.0147; to GUGCCUUGCGCCGGGAAACCACGCAAGGGAUGGUGUCAAAUUCGGCGAAACCUAAGCGCCCGCCCGGGCGUAUGGCAACGCAGAGCCAAGCUUCGGCGCCUGCGCCGAUGAAGGUGUAGUGACUAGACGGCACCCACCUAAGGCAAACGCUAUGGUGAAGGCAUAGUCUAGGGAGAGGCGAAAGUCACACAAACCGG [C82A A120U C169U U176A], 0.00359; to GUGCCUUGCGCCGGGAAACCACGCAAGGGAUGGUGUCAAAUUCGGCGAAACCUAAGCGCCCGCCCGGGCGUAUGGCAACGCUGAGCCAAGCUUCGGCGCCUGCGCCGAUGGAGGUGUAGCGACUAGACGGCACCCACCUAAGGCAAACGGUAUGGUGAAGGCAUAGUCUAGGGAGCGGCGAAAGUCACACAAACCGG [C82U A111G A120C C150G C169U U176C], 0.0138.
Consider GUGCCUUGCGCCGGGAAACCACGCAAGGGAUGGUGUCAAAUUCGGCGAAACCUAAGCGCCCGCCCGGGCGUAUGGCAACGCUGAGCCAAGCUUCGGCGCCUGCGCCGAUGUAGGUGUAGGGACUAGACGGCACCCACCUAAGGCAAACGCUAUGGUGAAGGCAUAGUCCAGGGAGAGGCGAAAGUCACACAAACCGG [C82U A111U A120G U176A], for which the reverse-splicing fitness is 0.0123.
As to GUGCCUUGCGCCGGGAAACCACGCAAGGGAUGGUGUCAAAUUCGGCGAAACCUAAGCGCCCGCCCGGGCGUAUGGCAACGCUGAGCCAAGCUUCGGCGCCUGCGCCGAUGUAGGUGUAGGGACUAGACGGCACCCACCUAAGGCGAACGUUAUGGUGAAGGCAUAGUCAAGGGAGGGGCGAAAGUCACACAAACCGG [C82U A111U A120G A145G C150U C169A U176G], the reverse-splicing fitness was 0.00525.
With GUGCCUUGCGCCGGGAAACCACGCAAGGGAUGGUGUCAAAUUCGGCGAAACCUAAGCGCCCGCCCGGGCGUAUGGCAACGCGGAGCCAAGCUUCGGCGCCUGCGCCGAUGCAGGUGUAGGGACUAGACGGCACCCACCUAAGGCUAACGUUAUGGUGAAGGCAUAGUCAAGGGAGUGGCGAAAGUCACACAAACCGG [C82G A111C A120G A145U C150U C169A], the reverse-splicing fitness came out at 0.0101.
Turning to GUGCCUUGCGCCGGGAAACCACGCAAGGGAUGGUGUCAAAUUCGGCGAAACCUAAGCGCCCGCCCGGGCGUAUGGCAACGCGGAGCCAAGCUUCGGCGCCUGCGCCGAUGCAGGUGUAGUGACUAGACGGCACCCACCUAAGGCUAACGCUAUGGUGAAGGCAUAGUCAAGGGAGUGGCGAAAGUCACACAAACCGG [C82G A111C A120U A145U C169A], the reverse-splicing fitness turned out to be 0.00231.
Next, GUGCCUUGCGCCGGGAAACCACGCAAGGGAUGGUGUCAAAUUCGGCGAAACCUAAGCGCCCGCCCGGGCGUAUGGCAACGCGGAGCCAAGCUUCGGCGCCUGCGCCGAUGCAGGUGUAGCGACUAGACGGCACCCACCUAAGGCGAACGAUAUGGUGAAGGCAUAGUCCAGGGAGGGGCGAAAGUCACACAAACCGG [C82G A111C A120C A145G C150A U176G]: 0.00711; GUGCCUUGCGCCGGGAAACCACGCAAGGGAUGGUGUCAAAUUCGGCGAAACCUAAGCGCCCGCCCGGGCGUAUGGCAACGCCGAGCCAAGCUUCGGCGCCUGCGCCGAUGUAGGUGUAGGGACUAGACGGCACCCACCUAAGGCAAACGAUAUGGUGAAGGCAUAGUCAAGGGAGAGGCGAAAGUCACACAAACCGG [A111U A120G C150A C169A U176A]: 0.0237; GUGCCUUGCGCCGGGAAACCACGCAAGGGAUGGUGUCAAAUUCGGCGAAACCUAAGCGCCCGCCCGGGCGUAUGGCAACGCUGAGCCAAGCUUCGGCGCCUGCGCCGAUGAAGGUGUAGCGACUAGACGGCACCCACCUAAGGCUAACGGUAUGGUGAAGGCAUAGUCAAGGGAGAGGCGAAAGUCACACAAACCGG [C82U A120C A145U C150G C169A U176A]: 0.00958.
For GUGCCUUGCGCCGGGAAACCACGCAAGGGAUGGUGUCAAAUUCGGCGAAACCUAAGCGCCCGCCCGGGCGUAUGGCAACGCCGAGCCAAGCUUCGGCGCCUGCGCCGAUGGAGGUGUAGCGACUAGACGGCACCCACCUAAGGCCAACGCUAUGGUGAAGGCAUAGUCAAGGGAGCGGCGAAAGUCACACAAACCGG [A111G A120C A145C C169A U176C], the reverse-splicing fitness stood at 0.00508.
GUGCCUUGCGCCGGGAAACCACGCAAGGGAUGGUGUCAAAUUCGGCGAAACCUAAGCGCCCGCCCGGGCGUAUGGCAACGCGGAGCCAAGCUUCGGCGCCUGCGCCGAUGGAGGUGUAGAGACUAGACGGCACCCACCUAAGGCUAACGAUAUGGUGAAGGCAUAGUCAAGGGAGAGGCGAAAGUCACACAAACCGG [C82G A111G A145U C150A C169A U176A]: the reverse-splicing fitness worked out at 0.0154.
